Measured values as given in paper PMC9352680, “A comprehensive thermodynamic model for RNA binding by the Saccharomyces cerevisiae Pumilio protein PUF4”.

T1: PUF4 RNA-binding domain (Saccharomyces cerevisiae, UniProt P25339 537-888)
T1 sequence: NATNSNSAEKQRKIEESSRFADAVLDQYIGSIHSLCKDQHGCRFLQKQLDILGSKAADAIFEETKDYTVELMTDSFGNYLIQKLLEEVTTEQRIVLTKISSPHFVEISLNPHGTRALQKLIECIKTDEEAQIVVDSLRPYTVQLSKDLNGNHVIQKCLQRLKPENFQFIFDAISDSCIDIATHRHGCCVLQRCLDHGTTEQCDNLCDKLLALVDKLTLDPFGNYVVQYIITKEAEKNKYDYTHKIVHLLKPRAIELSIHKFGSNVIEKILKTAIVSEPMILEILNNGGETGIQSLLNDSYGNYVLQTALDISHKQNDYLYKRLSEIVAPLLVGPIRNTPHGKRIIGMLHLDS


Target: T1, PUF4 RNA-binding domain
Assay: Mg; RNA-MaP; 20 mM Na-HEPES pH 7.4, 30 mM KOAc, 0.75 mM MgCl2, 0.1% Tween-20, 5% glycerol, 0.1 mg/mL BSA, 2 mM DTT; 25 C; 0.0125-409.6 nM protein
Settings: tags: N-His6-TEV cleaved; C-SNAP kept, Cy3B-labelled; label: tethered on chip by stalled RNA polymerase

Binder	Kd [nM]
Id_ii_S2_P5E.3_K5.2_C5.2_[C-2G]_H5.2_A5.1_F5.1_T5.2_[T11C]_[A12G] (ssRNA) RNA: UUUGAUUAAUAUGAUAUCGUUCUUUCUGUUAUAUUAUUACGUUCUUUCUCGAUAUCAUAUUAAUCUUU	68.5
Id_ii_S2_P5E.3_K5.2_C5.2_[C-2G]_H5.2_A5.1_F5.1_T5.2_[A12T] (ssRNA) RNA: UUUGAUUAAUAUGAUAUCGUUCUUUCUGUUAUAUUAUUAUUUUCUUUCUCGAUAUCAUAUUAAUCUUU	11.7
Id_ii_S2_P5E.3_K5.2_C5.2_[C-2T]_[T-1A]_H5.2_A5.1_F5.1_T5.2_[T11G]_[A12T] (ssRNA) RNA: UUUGAUUAAUAUGAUAUCGUUCUUUCUUAUAUAUUAUUAGUUUCUUUCUCGAUAUCAUAUUAAUCUUU	41.6
Id_ii_S2_P5E.3_K5.2_C5.2_[C-2G]_[T-1C]_H5.2_A5.1_F5.1_T5.2_[A12C] (ssRNA) RNA: UUUGAUUAAUAUGAUAUCGUUCUUUCUGCUAUAUUAUUAUCUUCUUUCUCGAUAUCAUAUUAAUCUUU	455
Id_ii_S2_P5E.3_K5.2_C5.2_[C-2G]_H5.2_A5.1_F5.1_T5.2_[T11C]_[A12T] (ssRNA) RNA: UUUGAUUAAUAUGAUAUCGUUCUUUCUGUUAUAUUAUUACUUUCUUUCUCGAUAUCAUAUUAAUCUUU	27.5
Id_ii_S2_P5E.3_K5.2_C5.2_[C-2T]_[T-1A]_H5.2_A5.1_F5.1_T5.2_[T11C]_[A12T] (ssRNA) RNA: UUUGAUUAAUAUGAUAUCGUUCUUUCUUAUAUAUUAUUACUUUCUUUCUCGAUAUCAUAUUAAUCUUU	6.8
Id_ii_S2_P5E.3_K5.2_C5.2_[C-2T]_[T-1A]_H5.2_A5.1_F5.1_T5.2_[T11A] (ssRNA) RNA: UUUGAUUAAUAUGAUAUCGUUCUUUCUUAUAUAUUAUUAAAUUCUUUCUCGAUAUCAUAUUAAUCUUU	22.6
Id_ii_S2_P5E.3_K5.2_C5.2_[C-2G]_H5.2_A5.1_F5.1_T5.2_[T11A] (ssRNA) RNA: UUUGAUUAAUAUGAUAUCGUUCUUUCUGUUAUAUUAUUAAAUUCUUUCUCGAUAUCAUAUUAAUCUUU	21.3
Id_ii_S2_P5E.3_K5.2_C5.2_[C-2G]_H5.2_A5.1_F5.1_T5.2_[T11G]_[A12T] (ssRNA) RNA: UUUGAUUAAUAUGAUAUCGUUCUUUCUGUUAUAUUAUUAGUUUCUUUCUCGAUAUCAUAUUAAUCUUU	16.7
Id_ii_S2_P5E.3_K5.2_C5.2_[C-2T]_[T-1C]_H5.2_A5.1_F5.1_T5.2_[T11C]_[A12T] (ssRNA) RNA: UUUGAUUAAUAUGAUAUCGUUCUUUCUUCUAUAUUAUUACUUUCUUUCUCGAUAUCAUAUUAAUCUUU	82.2
Id_ii_S2_P5E.3_K5.2_C5.2_[C-2T]_[T-1A]_H5.2_A5.1_F5.1_T5.2_[A12C] (ssRNA) RNA: UUUGAUUAAUAUGAUAUCGUUCUUUCUUAUAUAUUAUUAUCUUCUUUCUCGAUAUCAUAUUAAUCUUU	10.7
Id_ii_S2_P5E.3_K5.2_C5.2_[C-2T]_[T-1G]_H5.2_A5.1_F5.1_T5.2_[T11A]_[A12T] (ssRNA) RNA: UUUGAUUAAUAUGAUAUCGUUCUUUCUUGUAUAUUAUUAAUUUCUUUCUCGAUAUCAUAUUAAUCUUU	0.37
Id_ii_S2_P5E.3_K5.2_C5.2_[C-2T]_[T-1C]_H5.2_A5.1_F5.1_T5.2_[T11C] (ssRNA) RNA: UUUGAUUAAUAUGAUAUCGUUCUUUCUUCUAUAUUAUUACAUUCUUUCUCGAUAUCAUAUUAAUCUUU	179
Id_ii_S2_P5E.3_K5.2_C5.2_[C-2T]_[T-1A]_H5.2_A5.1_F5.1_T5.2_[A12T] (ssRNA) RNA: UUUGAUUAAUAUGAUAUCGUUCUUUCUUAUAUAUUAUUAUUUUCUUUCUCGAUAUCAUAUUAAUCUUU	19.2
Id_ii_S2_P5E.3_K5.2_C5.2_[C-2G]_[T-1C]_H5.2_A5.1_F5.1_T5.2_[T11A]_[A12T] (ssRNA) RNA: UUUGAUUAAUAUGAUAUCGUUCUUUCUGCUAUAUUAUUAAUUUCUUUCUCGAUAUCAUAUUAAUCUUU	95.1
Id_ii_S2_P5E.3_K5.2_C5.2_[C-2T]_[T-1A]_H5.2_A5.1_F5.1_T5.2_[T11C]_[A12G] (ssRNA) RNA: UUUGAUUAAUAUGAUAUCGUUCUUUCUUAUAUAUUAUUACGUUCUUUCUCGAUAUCAUAUUAAUCUUU	19.5
Id_ii_S2_P5E.3_K5.2_C5.2_[C-2G]_[T-1C]_H5.2_A5.1_F5.1_T5.2_[T11A]_[A12C] (ssRNA) RNA: UUUGAUUAAUAUGAUAUCGUUCUUUCUGCUAUAUUAUUAACUUCUUUCUCGAUAUCAUAUUAAUCUUU	381
Id_ii_S2_P5E.3_K5.2_C5.2_[C-2T]_[T-1G]_H5.2_A5.1_F5.1_T5.2_[T11A]_[A12C] (ssRNA) RNA: UUUGAUUAAUAUGAUAUCGUUCUUUCUUGUAUAUUAUUAACUUCUUUCUCGAUAUCAUAUUAAUCUUU	0.571
Id_ii_S2_P5E.3_K5.2_C5.2_[C-2T]_[T-1C]_H5.2_A5.1_F5.1_T5.2_[T11A]_[A12T] (ssRNA) RNA: UUUGAUUAAUAUGAUAUCGUUCUUUCUUCUAUAUUAUUAAUUUCUUUCUCGAUAUCAUAUUAAUCUUU	149
UCUCUUUGUAUUUGUAUCUCUU (ssRNA) [Ib_S1_P5E.1_K5.1_C5.1_H5.1_A5.1_[A7T]_F5.1_[T8G]_T5.1]	10.1
UCUCUUUGUAUUGGUAUCUCUU (ssRNA) [Ic_S1_P5E.1_K5.1_C5.1_H5.1_A5.1_[A7G]_F5.1_[T8G]_T5.1]	37.5
UCUCUUUGUAUUGCUAUCUCUU (ssRNA) [Ib_S1_P5E.1_K5.1_C5.1_H5.1_A5.1_[A7G]_F5.1_[T8C]_T5.1]	15.4
UCUCUUUGUAUUCGUAUCUCUU (ssRNA) [Ib_S1_P5E.1_K5.1_C5.1_H5.1_A5.1_[A7C]_F5.1_[T8G]_T5.1]	19.1
